Data reported in the supplement of paper PMC9170038.

Test system: MS2 coat protein
Assay: apparent KD of MS2 coat protein; designed switch direction (-1 OFF switch, 1 ON switch): -1; higher = weaker reporter binding
In short: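 Each step of the titration lasted 0.8–1.5 h at the lowest concentration and 10–20 min at the highest. The protein, SNAP-549-labelled MS2 coat protein, went from 0.7 or 1.5 nM doubling to 3 µM over RNA switches transcribed on Illumina chips by stalled E. coli RNA polymerase. Normalised cluster fluorescence was curve-fitted, and the per-design median over clusters is given as apparent KD.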

[1] = input ligand: microRNA oligo, concentration not stated
[2] = Eterna round: R95, input ligand: FMN 200 uM
[3] = Eterna round: R95, input ligand: microRNA oligo, concentration not stated
[4] = Eterna round: R95, input ligand: none

Row | Sequence | apparent KD of MS2 coat protein (input ligand: FMN 200 uM) [nM] | apparent KD of MS2 coat protein (input ligand: none) [nM] | further results
1 | AGCUGUGGCCGAGGAUAUCUAAAACCUCAAAACGAAAUAUAAUCGAACAUGAGGAUCACCCAUGUAGAGAAGGCGGUCUCAGCA [Eli eng2 - 031] (Eterna round: R96, puzzle: Exclusion NG 2) |  |  | apparent KD of MS2 coat protein [1]: 214 nM
2 | UAAUACAAGCAAAGAUCUUACAUGAGGAUCACCCAUGUGCUCGUCUUAUAAAGUACUAUCACGAAAGUGAUAGUACU [Mat - Sensor v3 - turn-off var 1 - Eli Mod - D94] (puzzle: Sensor v3, turn-off variant 1) |  |  | apparent KD of MS2 coat protein [2]: 29.3 nM; apparent KD of MS2 coat protein [3]: 202 nM; apparent KD of MS2 coat protein [4]: 34.6 nM
3 | ACAUGAGGAUCACCCAUGUCUGGCUGGUCCGCUCCGGCUGUUGAGGAUAUAGUUCGGUGUUCGCGCUAGAAGGUGAGGGCUGGC [Aenatbe mod 36] (Eterna round: R96, puzzle: Exclusion NG 3) | 27.7 | 38.8 | apparent KD of MS2 coat protein [1]: 24.4 nM
4 | ACUUAUUGAGGAUAUACAGAUUAUUACAUGAGGAUCACCCAUGUUCUUCAAUGUAUAUAUGUAGAAGGCAGAGGAU [Mat - Exclusion 5 - JL Mod - D13] (Eterna round: R97, puzzle: Exclusion 5) | 221 | 73.7 | 
5 | AUGGUUAGGUCAGGAUAUCGUUGAUUGAAUAGUAUGAUUUACAUGAGGAUCACCCAUGUUAUAUACGAGAAGGGACUUUAUCAU [JR_ExcNG2_Sub023] (Eterna round: R96, puzzle: Exclusion NG 2) | 9.77 | 18.6 | apparent KD of MS2 coat protein [1]: 8.77 nM
6 | AGCUAGAUAGGAUAUGCCCGGGAUAACAUGAGGAUCACCCAUGUGGCCGAAUCAAGUCCAGCAGAAGGGUUUGGGA [Mod of ViennaUCT 11 - Jieux - Exclusion 5] (Eterna round: R97, puzzle: Exclusion 5) | 43.2 | 34.8 | 
7 | GUCAGCUCGUCAGGAUAUACAUGAGGAUCACCCAUGUGGUCAAUAGCAGCUUCGGCUGCAAUAAUGUAGAAGGGACGAGCUGAC [ENG2/8-E] (Eterna round: R96, puzzle: Exclusion NG 2) | 115 | 756 | apparent KD of MS2 coat protein [1]: 301 nM
8 | AGCAUGCUAGGAUAUACGGGACAUUAGGGUUCGUUGUGUGGACAUGAGGAUCACCCAUGUAGAAGGAGCGUGCA [Mat - Exclusion 2 - Mod of Hyphema - D91] (puzzle: Exclusion 2) |  |  | apparent KD of MS2 coat protein [3]: 73.1 nM
9 | AAAUAGAAUGAGGAUAUCGUAUUGUAUUUAGUGCGAGAAGGCAUUACAUGAGGAUCACCCAUGUUUUGUUGGGA [JR_Ex6_Sub003] (Eterna round: R97, puzzle: Exclusion 6) | 89.1 | 32.3 | 
10 | UAGAUACAUGAGGAUCACCCAUGUGAGGAUAUGAGGGUUAGCUUAAAUGGGCUGACUUUCAGAAGGCACAAGAA [JR_Ex1_Sub057] (Eterna round: R97, puzzle: Exclusion 1) | 94.7 | 43 | 
11 | UCGGCGUCAGGAUAUCCAAUAUAUGACAUGAGGAUCACCCAUGUUUCCACUCGUACCUCCGGAGAAGGGACGAAUA [Ex5 #91] (Eterna round: R97, puzzle: Exclusion 5) | 30.9 | 35.7 | 
12 | GAUCAACAUGAGGAUCACCCAUGUGAGGAUAUGAUACUAUGUACUUCGGUACAUAGUAUCAGAAGGCAUUAGGA [Ex1-3: 39] (puzzle: Exclusion 1) |  |  | apparent KD of MS2 coat protein [3]: 52.3 nM
13 | GGAAGAGAGUUAGGAUAUAUAAGAAGAAUGUGGGUAGAAGGAACGAAACAUGAGGAUCACCCAUGUCCCAUGUUGAGGAGGAGG (Eterna round: R96, puzzle: Exclusion NG 1) | 1530 | 560 | apparent KD of MS2 coat protein [1]: 349 nM
14 | AAGUCGGCAGGAUAUACAUGAGGAUCACCCAUGUAAAUUUUUCGUUUAACUUGAAUGUGUAGAAGGGCCAUAAA [Ex3 #66] (Eterna round: R97, puzzle: Exclusion 3) | 24.3 | 24.5 | 
15 | GAUUAUGCGAGCUUUAGGGACAUGAGGAUCACCCAUGUUCGUCUUAUUGGUCUGGAUACGCUGACAUACCUAAAUCU [JMF 97] (puzzle: Sensor v3, turn-off variant 1) |  |  | apparent KD of MS2 coat protein [2]: 18.6 nM; apparent KD of MS2 coat protein [3]: 28.4 nM; apparent KD of MS2 coat protein [4]: 20.9 nM
16 | GCGCACCUACCAAAAGGUAGGCCAACAUGAGGAUCACCCAUGUAGGAUAUCGAUUGCUUUGCAGUCGAGAAGGACAUGAUGCGC [JL ENG3 3.80 Mod 8] (Eterna round: R96, puzzle: Exclusion NG 3) | 33.8 | 21.6 | apparent KD of MS2 coat protein [1]: 15.4 nM
17 | AUAAUACAUGAGGAUCACCCAUGUGAGGAUAUACGACUCCAACCUAACAGCUUGGACCGUAGAAGGCACAAGGG [Exclusion 1 (MOD1.2 Esqu)] (Eterna round: R97, puzzle: Exclusion 1) | 54.5 | 261 | 

Row | Sequence | apparent KD of MS2 coat protein (input ligand: FMN 200 uM) [nM] | apparent KD of MS2 coat protein (input ligand: none) [nM] | further results
18 | CUCGUGUUAGGAUAUCUAUCGCGGAUGACAGAGAGGACGUUGGAGAAGGAACAUGAGGAUCACCCAUGUUCUGG [Eternabot (L2) Solution 86] (Eterna round: R97, puzzle: Exclusion 4) | 18.8 | 14.5 | 
19 | AAGAUACAUGAGGAUCACCCAUGUUAGGAUAUACGCAUGCAUGCAUGCAUGCAUGCAAGUAGAAGGAACCAUGC [Design #3] (Eterna round: R97, puzzle: Exclusion 1) | 29.2 | 28.4 | 
20 | GGCAGUCGAGGAUAUACAAUCGUGCUUCGGCACGUAAGAUCACAUGAGGAUCACCCAUGUAGAAGGCGACUGCC [E2/1-A1] (Eterna round: R97, puzzle: Exclusion 2) | 749 | 53.2 | 
21 | GUGCUAUGAGGAUAUACGUUGGUGGGCAUCUGUGUGCUCCUACAUGAGGAUCACCCAUGUAGAAGGCAUGUCAC [LRO-Excl2-20] (puzzle: Exclusion 2) |  |  | apparent KD of MS2 coat protein [3]: 11.9 nM
22 | ACAAGCUUGUAAUGAUAGAACAUGAGGAUCACCCAUGUAAAUGGAAGAACCAAUUGGAUAAGAUAAACUCGUCUUAU [JR_STOV1_Sub003] (Eterna round: R97, puzzle: Sensor, turn-off variant 1) | 114 | 127 | 
23 | CAGUACUGAGGAUAUACAUGAGGAUCACCCAUGUGUUCCAGCUAGGAUACUAGCAAAAGUAGAAGGCAGUACUG [salish99_ex3_r3_095x] (Eterna round: R96, puzzle: Exclusion 3) |  |  | apparent KD of MS2 coat protein [1]: 20.9 nM
24 | GUUCUUCCUGUAAGGAUAUCCAUGUGUCGGUUUAUGGAGAAGGUACAUGAGGAUCACCCAUGUCACCCGCGUUA (Eterna round: R97, puzzle: Brourd's mod of Exclusion 4) | 45.9 | 18.5 | 
25 | CUAAAUCAUGUAGGAUAUGCGUGGCAAAGCUAUGCAGAAGGACAUGAGGAUCACCCAUGUCAUUCCGUCUGGGAACAGACGGGA [Mat - Exclusion NG 1 - Mod of JL - D52] (Eterna round: R96, puzzle: Exclusion NG 1) | 158 | 24.5 | apparent KD of MS2 coat protein [1]: 17.5 nM
26 | AAAAAACAAGGAUAUACAAAAAAAAAAUGUGAUAAAAAACCACAUGAGGAUCACCCAUGUAGAAGGUGUAAAAA [JR_Exclusion2_Sub003] (puzzle: Exclusion 2) |  |  | apparent KD of MS2 coat protein [2]: 55.6 nM; apparent KD of MS2 coat protein [3]: 62.8 nM; apparent KD of MS2 coat protein [4]: 65 nM
27 | AAAUAAUAGAUAAAAUAAAACAUGAGGAUCACCCAUGUGGGAUGUUGAGGGUGAUACAAGCUUUUUGCUCGUCUUAU (puzzle: Sensor v3, turn-off variant 1) |  |  | apparent KD of MS2 coat protein [2]: 233 nM; apparent KD of MS2 coat protein [3]: 45.6 nM; apparent KD of MS2 coat protein [4]: 271 nM
28 | AAUUACAAGCAAAGAUCCUACAUGAGGAUCACCCAUGUGCUCGUCUUAUAAAGUACUAUCACGAAAGUGAUAGUACA [Mat - Sensor v3 - turn-off var 1 - Eli Mod - D76] (puzzle: Sensor v3, turn-off variant 1) |  |  | apparent KD of MS2 coat protein [2]: 222 nM; apparent KD of MS2 coat protein [3]: 13.5 nM; apparent KD of MS2 coat protein [4]: 232 nM
29 | CCCGUGUAAGGAUAUCGUUCACUUGGCGAAAGUCGAGUGGACGAGAAGGUACAUGAGGAUCACCCAUGUACGGG [-36.1, -35.7 kcal, A 27%] (Eterna round: R97, puzzle: Exclusion 4) | 438 | 305 | 
30 | GGACAUAAAGUCAGGAUAUUAAGGCGAACAAGCGAUGAGAAGGGACAUGAGGAUCACCCAUGUGAUUCGCAUCA [Raerce] (Eterna round: R97, puzzle: Brourd's mod of Exclusion 4) | 32.7 | 24.1 | 
31 | AGAGAAUACUCAGGAUAUCUUAAUAGAAAGAAUAGAGAAGGGAGACAUGAGGAUCACCCAUGUGAAGUCUUGAGACUACAUGGU [Prohibition 29 - Jieux - Exclusion NG 1] (Eterna round: R96, puzzle: Exclusion NG 1) |  |  | apparent KD of MS2 coat protein [1]: 218 nM
32 | AGUGUCAAGCAAGCAAGGAACAUGAGGAUCACCCAUGUCGUACAAUAAACGCCCGCUCGUCGCACGUCGUGCGUAGA [Eternabot (Original) Solution 18] (Eterna round: R97, puzzle: Sensor, turn-off variant 1) | 34.3 | 27.2 | 
33 | UUUUUGUGAGGAUAUCAGUAGUAGAACAAUAGUACUACUACUGAGAAGGUACAUGAGGAUCACCCAUGUUCCUC [Fiskers Ex 4 Super stable 44 mod 13] (puzzle: Exclusion 4) |  |  | apparent KD of MS2 coat protein [3]: 19.5 nM
34 | AAGAUGCGGAUAGGAUAUGGAAAUUAAUAAAGACCAGAAGGAUUGGUCACACAACAUGAGGAUCACCCAUGUGUGUGUUGUGAA [AK ExNG1-5] (Eterna round: R96, puzzle: Exclusion NG 1) |  |  | apparent KD of MS2 coat protein [1]: 10.6 nM
